Residue numbers refer to the chain shown, from its start.
Tests used:
[1] = tested on: T1, CRISPR nuclease variant I521R I521R (synthetic construct); experiment: cell_activity; conditions: PAM 5'-GCTG-3'; HEK293T; averaged over AAVS1, VEGFA, EMX1 targets
T1 sequence: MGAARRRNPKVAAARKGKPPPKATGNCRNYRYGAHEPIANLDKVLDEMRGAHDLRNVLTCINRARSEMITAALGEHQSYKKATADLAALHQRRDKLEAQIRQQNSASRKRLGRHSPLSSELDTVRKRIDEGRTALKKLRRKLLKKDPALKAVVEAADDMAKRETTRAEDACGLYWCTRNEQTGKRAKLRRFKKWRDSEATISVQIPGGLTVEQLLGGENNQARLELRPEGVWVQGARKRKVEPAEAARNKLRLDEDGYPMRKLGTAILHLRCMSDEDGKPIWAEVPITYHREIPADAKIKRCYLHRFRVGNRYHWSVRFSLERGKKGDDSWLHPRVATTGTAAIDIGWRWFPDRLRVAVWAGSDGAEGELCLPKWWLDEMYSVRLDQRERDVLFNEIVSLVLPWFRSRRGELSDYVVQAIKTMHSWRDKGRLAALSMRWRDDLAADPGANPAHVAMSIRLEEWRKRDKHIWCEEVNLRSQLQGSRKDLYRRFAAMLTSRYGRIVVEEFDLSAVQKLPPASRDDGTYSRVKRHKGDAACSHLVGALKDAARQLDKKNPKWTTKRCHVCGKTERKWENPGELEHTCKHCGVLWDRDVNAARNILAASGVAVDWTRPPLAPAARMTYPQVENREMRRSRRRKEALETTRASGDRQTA

[2] = tested on: T2, CRISPR nuclease variant L580G,A512R L580G,A512R (synthetic construct); experiment: cell_activity; conditions: PAM 5'-GCTG-3'; HEK293T; averaged over AAVS1, VEGFA, EMX1 targets
T2 sequence: T1 sequence with A512R, R521I, L580G

Sequence: GGUCCCAUCGGAACGGGUUGUGGUUCCGACGGAGGGAUACAUUGGUGGGG / GGAGGGATACATTGGTGGGG / CCCCACCAATGTATCCCTCC [AAVS1 crRNA (Table 5) ; AAVS1 target (Table 5)]
- binding signal (fold indels vs WT) [1]: 3.57
- binding signal (fold indels vs WT) [2]: 3.75

— patent US20230235304
